Measurements published in patent EP4039268A1 (IMBA-Institut für Molekulare Biotechnologie GmbH, dated 2022).

What was measured:
[1] = biological target: T1, human recombinant soluble ACE2 (human, UniProt Q9BYF1 18-740); assay: ELISA
T1 construct: also called hrsACE2

[2] = biological target: T2, full-length trimeric SARS-CoV-2 Spike protein (Spike-H6) (SARS-CoV-2, N-glycosylated (22 N-glycosylation sites)); assay: ELISA screen
T2 construct: also called trimeric Spike; full-length Spike-H6

[3] = biological target: T1, human recombinant soluble ACE2; assay: ELISA screen
[4] = biological target: T3, monomeric SARS-CoV-2 receptor binding domain (RBD-H6) (SARS-CoV-2, UniProt P0DTC2 319-541); assay: ELISA screen
T3 construct: Made in HEK293-6E cells; also called RBD Spike; monomeric RBD

Binder | binding result [1] | Mean normalized OD [2] | Mean normalized OD [3] | Mean normalized OD [4]
Klrb1a CRD-mouse IgG2a-Fc fusion protein (Fc fusion) ECPQDWLSHRDKCFHVSHVSNTWEEGLVDCDGKGATLMLIQDQEELRFLLDSIKEKYNSFWIGLRYTLPDMNWKWINGSTLNSDVLKITDDTENDSCAAISGDKVTFESCNSDNRWICQKGGGSGGGSGGGS | no binding (tested: 10 µg/ml) | 0 OD | 0 OD | 0.002 OD
Frem1 CRD-mouse IgG2a-Fc fusion protein (Fc fusion) HSGYCHILVTRQKGTWTTATRACREQHQGDLVTVLSRRHMQWLWAMSGRKPFWIGLKNQPRTGHWEWIGGEPVAFTNWRRGAPLHPKPGKNCALVQKRGQWQTKNCSKGKAHNFVGGGSGGGSGGGS | no binding (tested: 10 µg/ml) | 0.03 OD | 0.028 OD | 0.013 OD
Lgals8_1 CRD-mouse IgG2a-Fc fusion protein (Fc fusion) YVGTITEQLKPGSLIVIRGHVPKDSERFQVDFQLGNSLKPRADVAFHFNPRFKRSSCIVCNTLTQEKWGWEEITYDMPFRKEKSFEIVFMVLKNKFQVAVNGRHVLLYAHRISPEQIDTVGIYGKVNIHSIGFRGGGSGGGSGGGS | no binding (tested: 10 µg/ml) | 0.019 OD | 0.062 OD | 0.031 OD
Lgalslb CRD-mouse IgG2a-Fc fusion protein (Fc fusion) YFRGHIKGGMRPGKKVLVMGIVDHNPKSFAISLTCGDSEDPPADVAIELKVVFTNQQVFRNSCISGESDEENLAFPYFPFVPDQPFRMEIFCQQPCFRVLVDGHHLFDFYHRIQTLSAIDSIKISGDLQIGGGSGGGSGGGS | no binding (tested: 10 µg/ml) | 0.026 OD | 0.047 OD | 0.01 OD
Colec10 CRD-mouse IgG2a-Fc fusion protein (Fc fusion) TEEKFYYIVQEEKNYRESLTHCRIRGGMLAMPKDEVVNTLIADYVAKSGFFRVFIGVNDLEREGQYVFTDNTPLQNYSNWKEEEPSDPSGHEDCVEMLSSGRWNDTECHLTMYFVCEGGGSGGGSGGGS | no binding (tested: 10 µg/ml) | 0.036 OD | 0.185 OD | 0.008 OD
Klri2 CRD-mouse IgG2a-Fc fusion protein (Fc fusion) FGNNFYCVFRENSKTWVESQSACEELNSHLVIIDSKAEVENLLLFEMDGWILHRMDGTNSSRLWGNDIKIRNTLMNDSEKKNHSCHYLRGNIFMPDECSAKKTYICEGGGSGGGSGGGS | no binding (tested: 10 µg/ml) | 0.006 OD | 0.005 OD | 0.001 OD
Lgals8_2 CRD-mouse IgG2a-Fc fusion protein (Fc fusion) FEARLNASMGPGRTVVIKGEVNTNARSFNVDLVAGKTRDIALHLNPRLNVKAFVRNSFLQDAWGEEERNITCFPFSSGMYFEMIIYCDVREFKVAINGVHSLEYKHRFKDLSSIDTLSVDGDIRLLDVRSWGGGSGGGSGGGS | no binding (tested: 10 µg/ml) | 0.037 OD | 0.074 OD | 0.012 OD
Klrb1 CRD-mouse IgG2a-Fc fusion protein (Fc fusion) HCDKCLFTSQTSRPWADGLVDCNLKGATLLLIQDEEELRLLQNFSKGKGQQFYIGLKYEEVDKVWKWMNGSILNTNLLQITGKDEENSCALISQTEVFSDSCSSDNHWICQGGGSGGGSGGGS | no binding (tested: 10 µg/ml) | 0.002 OD | 0.012 OD | 0.005 OD
Lgals12_2 CRD-mouse IgG2a-Fc fusion protein (Fc fusion) CSRALPRGLWPGQVIVVRGLVLKEPKDFTLSLKDGTTHVPVTLRASFTDRTLAWVSSWGRKKLISAPFLFHPQRFFEVLLLCQEGGLKLALNGQGLGATSLDQKALEQLRELRISGNVHLYCVHCGGGSGGGSGGGS | no binding (tested: 10 µg/ml) | 0.025 OD | 0.031 OD | 0.009 OD
Colec11 CRD-mouse IgG2a-Fc fusion protein (Fc fusion) TESKIYLLVKEEKRYADAQLSCQARGGTLSMPKDEAANGLMASYLAQAGLARVFIGINDLEKEGAFVYSDRSPMQTFNKWRSGEPNNAYDEEDCVEMVASGGWNDVACHITMYFMCEGGGSGGGSGGGS | no binding (tested: 10 µg/ml) | 0.043 OD | 0.153 OD | 0.013 OD
Cd209a CRD-mouse IgG2a-Fc fusion protein (Fc fusion) FQGSCYFFSVAQKSWNDSATACHNVGAQLVVIKSDEEQNFLQQTSKKRGYTWMGLIDMSKESTWYWVDGSPLTLSFMKYWSKGEPNNLGEEDCAEFRDDGWNDTKCTNKKFWICKGGGSGGGSGGGS | no binding (tested: 10 µg/ml) | 0.014 OD | 0.049 OD | 0.028 OD
Ly75_6 CRD-mouse IgG2a-Fc fusion protein (Fc fusion) FQNKCFLKVNSGPVTFSQASGICHSYGGTLPSVLSRGEQDFIISLLPEMEASLWIGLRWTAYERINRWTDNRELTYSNFHPLLVGRRLSIPTNFFDDESHFHCALILNLKKSPLTGTWNFTSCSERHSLSLCQKGGGSGGGSGGGS | no binding (tested: 10 µg/ml) | 0.007 OD | 0.005 OD | 0.003 OD
Klrd1 CRD-mouse IgG2a-Fc fusion protein (Fc fusion) HQCNCYFISKEEKSWKRSRDFCASQNSSLLQPQSRNELSFMNFSQTFFWIGMHYSEKRNAWLWEDGTVPSKDLFPEFSVIRPEHCIVYSPSKSVSAESCENKNRYICKGGGSGGGSGGGS | no binding (tested: 10 µg/ml) | 0.003 OD | 0.006 OD | 0.004 OD
Lgals2 CRD-mouse IgG2a-Fc fusion protein (Fc fusion) KFEVKDLNMKPGMSLKIKGKIHNDVDRFLINLGQGKETLNLHFNPRFDESTIVCNTSEGGRWGQEQRENHMCFSPGSEVKITITFQDKDFKVTLPDGHQLTFPNRLGHNQLHYLSMGGLQISSFKLEGGGSGGGSGGGS | no binding (tested: 10 µg/ml) | 0.035 OD | 0.031 OD | 0.018 OD
Cd207 CRD-mouse IgG2a-Fc fusion protein (Fc fusion) FSGNFYYFSRTPKTWYSAEQFCISRKAHLTSVSSESEQKFLYKAADGIPHWIGLTKAGSEGDWYWVDQTSFNKEQSRRFWIPGEPNNAGNNEHCANIRVSALKCWNDGPCDNTFLFICKGGGSGGGSGGGS | no binding (tested: 10 µg/ml) | 0.028 OD | 0.123 OD | 0.118 OD
Clec4e CRD-mouse IgG2a-Fc fusion protein (Fc fusion) YQSSCYFFSTTTLTWSSSLKNCSDMGAHLVVIDTQEEQEFLFRTKPKRKEFYIGLTDQVVEGQWQWVDDTPFTESLSFWDAGEPNNIVLVEDCATIRDSSNSRKNWNDIPCFYSMPWICEGGGSGGGSGGGS | no binding (tested: 10 µg/ml) | 0.037 OD | 0.222 OD | 0.022 OD
Lgals4_2 CRD-mouse IgG2a-Fc fusion protein (Fc fusion) YVGALQGGLTVRRTIIIKGYVLPTARNFVINFKVGSSGDIALHLNPRIGDSVVRNSFMNGSWGAEERKVAYNPFGPGQFFDLSIRCGMDRFKVFANGQHLFDFSHRFQAFQMVDTLEINGDITLSYVQIGGGSGGGSGGGS | no binding (tested: 10 µg/ml) | 0.034 OD | 0.031 OD | 0.014 OD
Dgcr2 CRD-mouse IgG2a-Fc fusion protein (Fc fusion) CPSGWHHYEGTASCYRVYLSGENYWDAAQTCQRVNGSLATFSTDQELRFVLAQEWDQPERSFGWKDQRKLWVGYQYVITGRNHSLEGRWEVAFKGSPEVFLPPDPIFASAMSENDNVFCAQLQCFHFGGGSGGGSGGGS | no binding (tested: 10 µg/ml) | 0.005 OD | 0.012 OD | 0.003 OD
Grifin CRD-mouse IgG2a-Fc fusion protein (Fc fusion) FEAFCAGGLAPGWSLTVQGHADAGEEKFEINFLTDAGDIAFHVKPRFSSATVVGNAFQGGRWGQEEVSSIFPLTLGEPFEMEVSADAEHFHIYAQEQKVLQFPHRHRPLATITRVRVLSEHRLAQVELAGGGSGGGSGGGS | no binding (tested: 10 µg/ml) | 0.004 OD | 0.035 OD | 0 OD
Clec9a CRD-mouse IgG2a-Fc fusion protein (Fc fusion) NGKSCYYVFERWEMWNISKKSCLKEGASLFQIDSKEEMEFISSIGKLKGGNKYWVGVFQDGISGSWFWEDGSSPLSDLLPAERQRSAGQICGYLKDSTLISDKCDSWKYFICEGGGSGGGSGGGS | no binding (tested: 10 µg/ml) | 0.029 OD | 0.222 OD | 0.062 OD
